{"source": "patent US20240116985A1", "about": "(published 2024)", "note": "Starred links: 1 amine or outer side, 2 acyl side, 3 side chain; linkers in the order of their positions; H or OH if unused. Positions of bridges follow the written chain, without caps; N, C: chain ends. Non-standard residues stand in square brackets, D forms with d. Primed or numbered codes have the meaning given here. PyrS2″ = (S)-3-amino-1-((pent-4-en-1-yloxy)carbonyl)pyrrolidine-3-carboxylic acid (stapling residue), C=CCCCOC(=O)N1CC[C@@](N[*:1])(C(=O)[*:2])C1; B5(16) = 2-amino-2-(pent-4-en-1-yl)hept-6-enoic acid = 2,2-bis(4-pentenyl)glycine (stitching residue), C=CCCCC(CCCC=C)(N[*:1])C(=O)[*:2]; B5(4) = 2,2-bis(4-pentenyl)glycine = 2-amino-2-(pent-4-en-1-yl)hept-6-enoic acid (stitching residue), C=CCCCC(CCCC=C)(N[*:1])C(=O)[*:2]; TfeGA = (S)-2-amino-3-((carboxymethyl)(2,2,2-trifluoroethyl)amino)propanoic acid, O=C([C@H](CN(CC(=O)[*:3])CC(F)(F)F)N[*:1])[*:2]; PyrS2 = (S)-3-amino-1-((pent-4-en-1-yloxy)carbonyl)pyrrolidine-3-carboxylic acid, C=CCCCOC(=O)N1CC[C@@](N[*:1])(C(=O)[*:2])C1; B5(19) = 2-amino-2-(pent-4-en-1-yl)hept-6-enoic acid (bis(4-pentenyl)glycine), C=CCCCC(CCCC=C)(N[*:1])C(=O)[*:2]; AspSH = (S)-2-amino-4-mercapto-4-oxobutanoic acid, O=C(C[C@H](N[*:1])C(=O)[*:2])S[*:3]; B5 = 2-amino-2-(pent-4-en-1-yl)hept-6-enoic acid, C=CCCCC(CCCC=C)(N[*:1])C(=O)[*:2]; AcLys″ = N6-acetyl-lysine, CC(=O)NCCCC[C@H](N[*:1])C(=O)[*:2]; Phe(3-CONH2) = NC(=O)c1cccc(C[C@H](N)C(=O)O)c1; Phe(2-CF3) = N[C@@H](Cc1ccccc1C(F)(F)F)C(=O)O; Phe(2-CONH2) = NC(=O)c1ccccc1C[C@H](N)C(=O)O; Phe(2-Cl) = N[C@@H](Cc1ccccc1Cl)C(=O)O; Ala(cPent) = N[C@@H](CC1CCCC1)C(=O)O; Bta = N[C@@H](Cc1csc2ccccc12)C(=O)O; αAllylPro = C=CC[C@@]1(C(=O)O)CCCN1; tBuAla = CC(C)(C)C[C@H](N)C(=O)O; 3Thi = N[C@@H](Cc1ccsc1)C(=O)O; Nle = CCCC[C@H](N)C(=O)O", "data": [{"target": "T1, B-cat-Halo (UniProt P35222 2-781)", "T1 sequence (looked up)": "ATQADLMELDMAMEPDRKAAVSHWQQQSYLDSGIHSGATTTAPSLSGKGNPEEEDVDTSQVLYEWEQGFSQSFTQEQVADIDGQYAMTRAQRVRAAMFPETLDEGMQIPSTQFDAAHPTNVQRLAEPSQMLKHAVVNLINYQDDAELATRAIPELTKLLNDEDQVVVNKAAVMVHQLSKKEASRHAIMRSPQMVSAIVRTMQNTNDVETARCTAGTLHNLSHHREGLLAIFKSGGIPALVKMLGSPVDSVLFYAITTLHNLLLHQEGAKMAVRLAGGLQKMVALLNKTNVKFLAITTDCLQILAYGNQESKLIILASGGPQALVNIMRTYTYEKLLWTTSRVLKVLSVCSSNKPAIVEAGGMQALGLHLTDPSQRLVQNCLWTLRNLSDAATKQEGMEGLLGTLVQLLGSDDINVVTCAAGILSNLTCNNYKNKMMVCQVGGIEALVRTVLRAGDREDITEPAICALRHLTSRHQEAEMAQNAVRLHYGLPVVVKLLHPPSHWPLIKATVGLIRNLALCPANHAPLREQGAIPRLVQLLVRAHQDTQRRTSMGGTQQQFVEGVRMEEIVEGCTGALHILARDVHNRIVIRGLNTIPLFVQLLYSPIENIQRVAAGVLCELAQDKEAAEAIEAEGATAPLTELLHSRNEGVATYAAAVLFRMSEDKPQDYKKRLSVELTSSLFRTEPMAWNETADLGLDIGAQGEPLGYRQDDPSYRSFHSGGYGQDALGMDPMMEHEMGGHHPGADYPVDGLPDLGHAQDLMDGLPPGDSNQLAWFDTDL", "test": "cell-based or functional assay", "units": {"NanoBRET Abs IC50": "µM"}, "values": [{"binder": "Ac-[αAllylPro]D[tBuAla][B5(19)]D[TfeGA]AAF[Nle][PyrS2][3Thi][Bta]Q-NH2 (staple 1-4, 4-11)", "note": "[I-1776]", "NanoBRET Abs IC50": 10.5}, {"binder": "Ac-[αAllylPro]D[Nle][B5(19)]D[TfeGA]AAFL[PyrS2][3Thi][Bta]Q-NH2 (staple 1-4, 4-11)", "note": "[I-1777]", "NanoBRET Abs IC50": 8.7}]}, {"target": "T2, B-cat-Halo (UniProt P35222 1-781)", "T2 sequence (looked up)": "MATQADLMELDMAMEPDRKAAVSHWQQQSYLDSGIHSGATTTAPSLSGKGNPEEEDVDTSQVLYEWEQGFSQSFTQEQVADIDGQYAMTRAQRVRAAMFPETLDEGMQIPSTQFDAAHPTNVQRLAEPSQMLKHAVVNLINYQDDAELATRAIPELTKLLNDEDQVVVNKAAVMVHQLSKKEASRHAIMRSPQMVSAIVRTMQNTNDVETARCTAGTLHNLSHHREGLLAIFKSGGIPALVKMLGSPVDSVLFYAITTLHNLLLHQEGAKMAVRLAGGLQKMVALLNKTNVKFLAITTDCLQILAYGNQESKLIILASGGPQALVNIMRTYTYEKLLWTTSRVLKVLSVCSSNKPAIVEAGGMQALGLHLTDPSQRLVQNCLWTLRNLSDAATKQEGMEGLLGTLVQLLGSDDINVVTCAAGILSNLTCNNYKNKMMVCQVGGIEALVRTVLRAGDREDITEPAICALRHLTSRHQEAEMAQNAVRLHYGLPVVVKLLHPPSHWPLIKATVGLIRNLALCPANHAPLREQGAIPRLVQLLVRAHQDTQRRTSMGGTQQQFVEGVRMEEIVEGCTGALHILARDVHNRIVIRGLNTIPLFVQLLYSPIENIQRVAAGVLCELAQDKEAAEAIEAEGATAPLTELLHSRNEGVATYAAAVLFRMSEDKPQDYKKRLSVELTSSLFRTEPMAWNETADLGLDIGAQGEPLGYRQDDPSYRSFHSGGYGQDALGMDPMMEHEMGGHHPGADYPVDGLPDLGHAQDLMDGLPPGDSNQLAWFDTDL", "test": "cell-based or functional assay", "units": {"NanoBRET Abs IC50": "µM"}, "values": [{"binder": "Ac-[αAllylPro]D[tBuAla][B5]D[TfeGA]AAFL[PyrS2][Ala(cPent)][Bta]Q-NH2 (staple 1-4, 4-11)", "note": "[I-1703]", "NanoBRET Abs IC50": 6.6}, {"binder": "Ac-[αAllylPro]D[tBuAla][B5(16)]D[TfeGA]AAFL[PyrS2″][Phe(2-CF3)][Bta]Q-NH2 (staple 1-4, 4-11)", "note": "[I-1704]", "NanoBRET Abs IC50": 5.3}, {"binder": "Ac-[αAllylPro]D[tBuAla][B5(16)]D[TfeGA]AAFL[PyrS2″][3Thi][Bta]N-NH2 (staple 1-4, 4-11)", "note": "[I-1705]", "NanoBRET Abs IC50": 2.9}, {"binder": "Ac-[αAllylPro]D[tBuAla][B5(4)]D[TfeGA]AAFL[PyrS2″][3Thi][Bta][Phe(2-CONH2)]-NH2 (staple 1-4, 4-11)", "note": "[I-1707]", "NanoBRET Abs IC50": 6.1}, {"binder": "Ac-[αAllylPro]D[tBuAla][B5(4)]D[TfeGA]AAFL[PyrS2″][3Thi][Bta][Phe(3-CONH2)]-NH2 (staple 1-4, 4-11)", "note": "[I-1708]", "NanoBRET Abs IC50": 11.9}, {"binder": "Ac-[αAllylPro]D[tBuAla][B5(4)]D[TfeGA]AAFL[PyrS2″]F[Bta]Q-NH2 (staple 1-4, 4-11; also: -CH=CH- in each staple reduced to -CH2-CH2-)", "note": "[I-1711]", "NanoBRET Abs IC50": 33.3}, {"binder": "Ac-[αAllylPro]D[tBuAla][B5(4)]D[TfeGA]AAFL[PyrS2″][Ala(cPent)][Bta]Q-NH2 (staple 1-4, 4-11; also: -CH=CH- in each staple reduced to -CH2-CH2-)", "note": "[I-1713]", "NanoBRET Abs IC50": "> 20"}, {"binder": "Ac-[αAllylPro]D[tBuAla][B5(4)]D[TfeGA]AAFL[PyrS2″][Phe(2-CF3)][Bta]Q-NH2 (staple 1-4, 4-11; also: -CH=CH- in each staple reduced to -CH2-CH2-)", "note": "[I-1714]", "NanoBRET Abs IC50": 28.6}, {"binder": "Ac-[αAllylPro]D[tBuAla][B5(4)]D[TfeGA]AAFL[PyrS2″][3Thi][Bta]N-NH2 (staple 1-4, 4-11; also: -CH=CH- in each staple reduced to -CH2-CH2-)", "note": "[I-1715]", "NanoBRET Abs IC50": 38.4}, {"binder": "Ac-[αAllylPro]D[tBuAla][B5(4)]D[TfeGA]AAFL[PyrS2″][3Thi][Bta]T-NH2 (staple 1-4, 4-11; also: -CH=CH- in each staple reduced to -CH2-CH2-)", "note": "[I-1716]", "NanoBRET Abs IC50": 21.7}, {"binder": "Ac-[αAllylPro]D[tBuAla][B5(4)]D[TfeGA]AAFL[PyrS2″][3Thi][Bta][AcLys″]-NH2 (staple 1-4, 4-11; also: -CH=CH- in each staple reduced to -CH2-CH2-)", "note": "[I-1719]", "NanoBRET Abs IC50": 27.6}, {"binder": "Ac-[αAllylPro][AspSH][tBuAla][B5]DDAAFN[PyrS2][Phe(2-Cl)][Bta]Q-NH2 (staple 1-4, 4-11; not fully specified)", "note": "[I-1721]", "NanoBRET Abs IC50": "> 20"}]}]}
